Data taken from the supplement of paper PMC10567573.

B1: ZNF649 (parent)
chain: YQAGKPDALTKLEQGEPLWTLEDE
B2: KIAA0774 (parent)
chain: FEDEVKRLGWQQQAELQELEERLQ
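Also: lentivirally expressed fusions sorted by FACS into six bins by GFP to DsRed ratio, PSI derived from sequencing read proportions per bin multiplied by bin number.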

Variants of: B1
Assay: protein stability index of a GFP-peptide fusion (GPS, HEK-293T) (PSI 1-6); higher = more stable
Settings: c terminus: a fixed tail appended
For YQAGKPDALTKLEQGEPLWTLEIE [D23I], the protein stability index was 1.84.
With YQAGKPDALTKLEQGEPLWTLENE [D23N] the protein stability index was 3.25.
Variant YQAGKPDALTKLEQGEPLWTLEQE [D23Q] has a protein stability index of 3.86.
YQAGKPDALTKLEQGEPLWTLEKE [D23K] gave a protein stability index of 3.51.
YQAGKPDALTKLEQGEPLWTLESE [D23S] showed a protein stability index of 4.11.
Variant YQAGKPDALTKLEQGEPLWTLEVE [D23V] has a protein stability index of 3.81.

Variants of: B2
Assay: as above
Settings: c terminus: a fixed tail appended
Variant GEDEVKRLGWQQQAELQELEERLQ [F1G] has a protein stability index of 3.56.
EEDEVKRLGWQQQAELQELEERLQ [F1E] gave a protein stability index of 4.66.
With AEDEVKRLGWQQQAELQELEERLQ [F1A] the protein stability index was 4.11.
Work on MEDEVKRLGWQQQAELQELEERLQ [F1M] yielded a protein stability index of 3.68.
In the case of HEDEVKRLGWQQQAELQELEERLQ [F1H], the protein stability index is reported as 4.02.
With DEDEVKRLGWQQQAELQELEERLQ [F1D] the protein stability index was 4.72.
SEDEVKRLGWQQQAELQELEERLQ [F1S] showed a protein stability index of 2.67.
In the case of WEDEVKRLGWQQQAELQELEERLQ [F1W], the protein stability index is reported as 3.93.
YEDEVKRLGWQQQAELQELEERLQ [F1Y] gave a protein stability index of 3.38.
Variant LEDEVKRLGWQQQAELQELEERLQ [F1L] has a protein stability index of 4.06.
For CEDEVKRLGWQQQAELQELEERLQ [F1C], the protein stability index was 3.11.
With TEDEVKRLGWQQQAELQELEERLQ [F1T] the protein stability index was 2.85.
IEDEVKRLGWQQQAELQELEERLQ [F1I] gave a protein stability index of 3.86.
For KEDEVKRLGWQQQAELQELEERLQ [F1K], the protein stability index was 2.96.
Work on QEDEVKRLGWQQQAELQELEERLQ [F1Q] yielded a protein stability index of 4.05.
Variant PEDEVKRLGWQQQAELQELEERLQ [F1P] has a protein stability index of 4.12.
Variant REDEVKRLGWQQQAELQELEERLQ [F1R] has a protein stability index of 3.41.
With NEDEVKRLGWQQQAELQELEERLQ [F1N] the protein stability index was 4.32.
For VEDEVKRLGWQQQAELQELEERLQ [F1V], the protein stability index was 3.66.
Variant FEDENKRLGWQQQAELQELEERLQ [V5N] has a protein stability index of 4.08.
FEDEDKRLGWQQQAELQELEERLQ [V5D] gave a protein stability index of 4.37.
For FEDEMKRLGWQQQAELQELEERLQ [V5M], the protein stability index was 4.19.
In the case of FEDEIKRLGWQQQAELQELEERLQ [V5I], the protein stability index is reported as 3.87.
For FEDEEKRLGWQQQAELQELEERLQ [V5E], the protein stability index was 4.44.
Variant FEDEAKRLGWQQQAELQELEERLQ [V5A] has a protein stability index of 3.86.
Work on FEDEFKRLGWQQQAELQELEERLQ [V5F] yielded a protein stability index of 2.77.
FEDEGKRLGWQQQAELQELEERLQ [V5G] gave a protein stability index of 3.99.
FEDEHKRLGWQQQAELQELEERLQ [V5H] showed a protein stability index of 4.15.
FEDECKRLGWQQQAELQELEERLQ [V5C] showed a protein stability index of 3.6.
Work on FEDELKRLGWQQQAELQELEERLQ [V5L] yielded a protein stability index of 3.4.
Variant FEDEKKRLGWQQQAELQELEERLQ [V5K] has a protein stability index of 2.54.
FEDDVKRLGWQQQAELQELEERLQ [E4D] gave a protein stability index of 4.14.
FEDAVKRLGWQQQAELQELEERLQ [E4A] gave a protein stability index of 2.75.
For FEDHVKRLGWQQQAELQELEERLQ [E4H], the protein stability index was 3.59.
For FEDWVKRLGWQQQAELQELEERLQ [E4W], the protein stability index was 2.81.
With FEDMVKRLGWQQQAELQELEERLQ [E4M] the protein stability index was 3.12.
Variant FEDKVKRLGWQQQAELQELEERLQ [E4K] has a protein stability index of 2.97.
Variant FEDNVKRLGWQQQAELQELEERLQ [E4N] has a protein stability index of 3.49.
Work on FEDPVKRLGWQQQAELQELEERLQ [E4P] yielded a protein stability index of 3.56.
FEDGVKRLGWQQQAELQELEERLQ [E4G] showed a protein stability index of 3.21.
In the case of FEDCVKRLGWQQQAELQELEERLQ [E4C], the protein stability index is reported as 2.93.
FEDIVKRLGWQQQAELQELEERLQ [E4I] gave a protein stability index of 3.19.
With FEDRVKRLGWQQQAELQELEERLQ [E4R] the protein stability index was 3.32.
FEDSVKRLGWQQQAELQELEERLQ [E4S] gave a protein stability index of 2.83.
In the case of FEDVVKRLGWQQQAELQELEERLQ [E4V], the protein stability index is reported as 3.33.
In the case of FEDFVKRLGWQQQAELQELEERLQ [E4F], the protein stability index is reported as 3.38.
For FEDTVKRLGWQQQAELQELEERLQ [E4T], the protein stability index was 3.2.
FEDLVKRLGWQQQAELQELEERLQ [E4L] showed a protein stability index of 2.47.
Variant FEDYVKRLGWQQQAELQELEERLQ [E4Y] has a protein stability index of 3.64.
With FEDQVKRLGWQQQAELQELEERLQ [E4Q] the protein stability index was 3.26.
With FEIEVKRLGWQQQAELQELEERLQ [D3I] the protein stability index was 1.66.
With FEAEVKRLGWQQQAELQELEERLQ [D3A] the protein stability index was 3.33.
With FEMEVKRLGWQQQAELQELEERLQ [D3M] the protein stability index was 2.59.
With FEPEVKRLGWQQQAELQELEERLQ [D3P] the protein stability index was 3.42.
In the case of FEREVKRLGWQQQAELQELEERLQ [D3R], the protein stability index is reported as 2.35.
Work on FEEEVKRLGWQQQAELQELEERLQ [D3E] yielded a protein stability index of 3.86.
In the case of FEVEVKRLGWQQQAELQELEERLQ [D3V], the protein stability index is reported as 2.76.
FEQEVKRLGWQQQAELQELEERLQ [D3Q] gave a protein stability index of 3.29.
For FEYEVKRLGWQQQAELQELEERLQ [D3Y], the protein stability index was 2.85.
With FECEVKRLGWQQQAELQELEERLQ [D3C] the protein stability index was 2.3.
With FESEVKRLGWQQQAELQELEERLQ [D3S] the protein stability index was 2.58.
FEKEVKRLGWQQQAELQELEERLQ [D3K] showed a protein stability index of 2.03.
FEFEVKRLGWQQQAELQELEERLQ [D3F] showed a protein stability index of 2.72.
Work on FEWEVKRLGWQQQAELQELEERLQ [D3W] yielded a protein stability index of 3.19.
FEHEVKRLGWQQQAELQELEERLQ [D3H] gave a protein stability index of 2.99.
Variant FETEVKRLGWQQQAELQELEERLQ [D3T] has a protein stability index of 2.69.
In the case of FENEVKRLGWQQQAELQELEERLQ [D3N], the protein stability index is reported as 2.75.
Variant FELEVKRLGWQQQAELQELEERLQ [D3L] has a protein stability index of 2.95.
Work on FEGEVKRLGWQQQAELQELEERLQ [D3G] yielded a protein stability index of 3.23.
For FDDEVKRLGWQQQAELQELEERLQ [E2D], the protein stability index was 3.79.
In the case of FYDEVKRLGWQQQAELQELEERLQ [E2Y], the protein stability index is reported as 3.56.
With FKDEVKRLGWQQQAELQELEERLQ [E2K] the protein stability index was 2.27.
For FADEVKRLGWQQQAELQELEERLQ [E2A], the protein stability index was 2.71.
For FLDEVKRLGWQQQAELQELEERLQ [E2L], the protein stability index was 3.05.
FHDEVKRLGWQQQAELQELEERLQ [E2H] gave a protein stability index of 2.16.
FWDEVKRLGWQQQAELQELEERLQ [E2W] gave a protein stability index of 3.33.
With FTDEVKRLGWQQQAELQELEERLQ [E2T] the protein stability index was 2.77.
FMDEVKRLGWQQQAELQELEERLQ [E2M] showed a protein stability index of 2.77.
With FGDEVKRLGWQQQAELQELEERLQ [E2G] the protein stability index was 3.14.
With FIDEVKRLGWQQQAELQELEERLQ [E2I] the protein stability index was 3.12.
FCDEVKRLGWQQQAELQELEERLQ [E2C] gave a protein stability index of 2.71.
For FRDEVKRLGWQQQAELQELEERLQ [E2R], the protein stability index was 4.41.
Variant FSDEVKRLGWQQQAELQELEERLQ [E2S] has a protein stability index of 2.32.
In the case of FVDEVKRLGWQQQAELQELEERLQ [E2V], the protein stability index is reported as 2.21.
FQDEVKRLGWQQQAELQELEERLQ [E2Q] showed a protein stability index of 2.93.
For FNDEVKRLGWQQQAELQELEERLQ [E2N], the protein stability index was 2.5.
FPDEVKRLGWQQQAELQELEERLQ [E2P] gave a protein stability index of 3.16.
In the case of FFDEVKRLGWQQQAELQELEERLQ [E2F], the protein stability index is reported as 3.25.
